How the values were obtained:
[1] = target: phosphorylated smooth muscle myosin (pSMM) (Gallus gallus) (UniProt P10587); details: cited from earlier work
[2] = target: phosphorylated smooth muscle myosin (chicken (endogenous in gizzard)) (UniProt P10587); assay: co-sedimentation
[3] = target: unphosphorylated smooth muscle myosin (chicken (endogenous in gizzard)) (UniProt P10587); assay: co-sedimentation
[4] = target: smooth muscle myosin (phosphorylated) (Gallus gallus) (UniProt P10587); details: cited from earlier work
[5] = target: unphosphorylated smooth muscle myosin (chicken (endogenous in gizzard)) (UniProt P10587)
[6] = target: unphosphorylated smooth muscle myosin (chicken (endogenous in gizzard)) (UniProt P10587); assay: ELISA

Sequence of MLCK (P11799 935-1906): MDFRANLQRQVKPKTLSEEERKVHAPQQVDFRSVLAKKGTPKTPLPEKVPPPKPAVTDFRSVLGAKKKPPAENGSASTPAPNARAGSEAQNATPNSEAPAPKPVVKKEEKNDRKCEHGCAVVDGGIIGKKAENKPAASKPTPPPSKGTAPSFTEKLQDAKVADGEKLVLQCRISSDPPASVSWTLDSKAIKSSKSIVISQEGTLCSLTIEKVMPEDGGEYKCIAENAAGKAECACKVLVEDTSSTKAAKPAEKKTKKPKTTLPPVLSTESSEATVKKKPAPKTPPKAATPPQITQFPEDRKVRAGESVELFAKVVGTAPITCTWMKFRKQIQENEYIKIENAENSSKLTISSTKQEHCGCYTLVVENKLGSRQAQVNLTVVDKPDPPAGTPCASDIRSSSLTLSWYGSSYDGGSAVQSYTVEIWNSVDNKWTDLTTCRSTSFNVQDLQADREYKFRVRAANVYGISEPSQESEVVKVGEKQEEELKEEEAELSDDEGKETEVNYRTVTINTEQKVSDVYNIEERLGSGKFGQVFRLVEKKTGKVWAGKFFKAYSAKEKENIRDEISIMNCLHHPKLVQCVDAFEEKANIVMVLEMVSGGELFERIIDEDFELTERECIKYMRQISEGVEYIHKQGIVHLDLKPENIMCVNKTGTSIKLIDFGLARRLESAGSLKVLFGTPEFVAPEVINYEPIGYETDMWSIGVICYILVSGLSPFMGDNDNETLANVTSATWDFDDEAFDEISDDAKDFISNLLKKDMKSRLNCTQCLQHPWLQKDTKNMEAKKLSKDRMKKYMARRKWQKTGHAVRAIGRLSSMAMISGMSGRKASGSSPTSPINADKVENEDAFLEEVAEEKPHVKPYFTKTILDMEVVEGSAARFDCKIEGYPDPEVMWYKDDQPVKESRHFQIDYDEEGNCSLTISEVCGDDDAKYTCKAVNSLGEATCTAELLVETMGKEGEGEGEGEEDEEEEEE

In the case of “smooth muscle myosin light chain kinase (MLCK) (from UniProt P11799)”, the Kd [1] is listed as > 100 µM.

With “smooth muscle myosin light chain kinase (enzyme)” the Kd of the more weakly bound MLCK pool [2] was 23.8 µM, the Kd of the more weakly bound MLCK pool [3] was 9.5 µM and the percent of MLCK bound to SMM, spin 2 [3] was 75%.

In the case of MLCK (from UniProt P11799), the Kd [4] is listed as 0.77 µM.

telokin (natural protein) showed a Kd [5] of 5 µM, a percent of actin displaced from the SMM coverslip at 50 uM telokin [6] of 9% and a percent of actin displaced from SMM filaments at 50 uM telokin [3] of 5%.
